Ends that are not written are not given here.
Experiments:
[1] = Parallel artificial membrane permeability assay (PAMPA) mimicking BBB; format: in vitro ADME; conditions: for PAMPA permeability Pe: precoated PAMPA plate, 40 μM in PBS, 5 h, room temperature, ICP-MS
Protocol: A parallel artificial membrane permeability assay was performed in a 96-well precoated PAMPA plate system (Corning Gentest # 353015). The experimental solutions of DGC were prepared by diluting the stock solutions (10 mM) in PBS at a final concentration of 40 μM and then added to the donor portion of the plate (300 μL/well), while PBS (200 μL/well) was added to the acceptor portion, and the DMSO concentration was lower than 1%. The filter plate was then coupled with the receiver plate, and the plate assembly was incubated at room temperature without agitation for 5 h. Samples of the initial donor solution (C0) were collected and stored at 4 °C. At the end of the incubation, samples were collected from the donor and acceptor plates and then added to aqua regia (HCl: HNO3, volume ratio = 3:1). The C0 samples were treated similarly. The final concentrations of DGC in the donor, acceptor, and T0 wells were quantified by the ICP-MS system (Thermo Elemental X7, USA). The results were used to calculate an effective permeability (Pe, cm/s) value. Permeability of DGC was calculated using the following Eq. (1):1 Pe={-ln[1-CA(t)/Ceq]}/[A×(1/VD+1/VA)×t] Where A = filter area (0.3 cm^2), t = incubation time (seconds), CA(t) = compound concentration in acceptor well at time t, VD = donor well volume (0.3 mL), VA = acceptor well volume (0.2 mL), CD(t) = compound concentration in donor well at time t, and Ceq was calculated using the following Eq. (2):2 Ceq=[CD(t)×VD+CA(t)×VA]/(VD+VA)

CTGF [2] = target: T1, CTGF (Mus musculus, UniProt P29268); experiment: ICP-MS of Au content in DGC-labelled mouse brain sections; design: species or system APP/PS1 and wild-type C57BL/6J mice
T1 construct: brain sections of the age-matched wild-type C57BL/6J mice were used as controls; from tissue; host or cells: brain of APP/PS1 transgenic and wild-type C57BL/6J mice (sections, living animal, perfused isolated brain)
T1 sequence (P29268 26-348): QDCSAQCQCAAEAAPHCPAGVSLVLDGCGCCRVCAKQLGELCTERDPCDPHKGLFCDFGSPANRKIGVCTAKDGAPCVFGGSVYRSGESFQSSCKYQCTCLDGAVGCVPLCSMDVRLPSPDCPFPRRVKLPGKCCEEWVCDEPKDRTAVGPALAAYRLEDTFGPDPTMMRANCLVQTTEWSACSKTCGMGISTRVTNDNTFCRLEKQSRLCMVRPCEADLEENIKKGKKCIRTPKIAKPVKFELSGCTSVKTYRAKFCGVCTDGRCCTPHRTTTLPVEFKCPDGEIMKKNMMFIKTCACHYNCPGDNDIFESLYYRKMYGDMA
Protocol: The DGC in the brain section was measured by ICP-MS. Briefly, the brain sections were digested with 5 mL mix solution (HNO3 and H2O2 = 3:1) overnight. Then, each section was digested at a mild boiling temperature until the solution was evaporated to 0.1–0.2 mL and added 5 mL aqua regia (HCl: HNO3 = 3:1) overnight. Then each section was digested at a mild boiling temperature until the solution was evaporated to 0.1– 0.2 mL and diluted by 2% HNO3 and 1% HCl to the final volume.

CTGF [3] = target: T1, CTGF; experiment: DAB chromogenic imaging of DGC-labelled mouse brain sections; design: species or system APP/PS1 and wild-type C57BL/6J mice; conditions: 200 μM DGC + DAB
Protocol: To observe the expression level of CTGF in the brain section with the naked eye, we optimized the conditions for labeling WT mice, 3-month-old APP/PS1 mice and 9-month-old APP/PS1 mice stained with DGC. According to the study, the optimal incubation concentration of DGC (200 μM) was used to determine the conditions using the DAB Horseradish Peroxidase Color Development Kit. After the brain sections were co-stained by DGC (200 μM) at 4 °C overnight, a DAB chromogenic agent was added to the brain sections. […] After the brown product was imaged by optical microscopy and analyzed by Image Pro Plus software.

**Q.** With “DGC: CTGF-targeting peptide-coated gold nanocluster: one Au26 gold nanocluster coated by eight DAG cyclic peptides, NIR-II and red fluorescence (CDAGRKQKC; also: cyclic peptide, ring not given here, eight peptides on one Au26 nanocluster via Cys Au-S bonds)” as the substance, how does the “BBB permeability class (PAMPA)” value ([1]; 40 μM) read?
**A.** high BBB permeability

**Q.** What about the “PAMPA permeability Mean Pe” value ([1]; at several concentrations) of the same substance?
**A.** higher than 1.5 * 10^-6 cm/s

**Q.** What about the “PAMPA permeability Pe” value ([1]; replicate 1) of the same substance?
**A.** 2.121 ×10⁻⁶ cm/s

**Q.** And the “PAMPA permeability Pe” value ([1]; replicate 2)?
**A.** 2.6 ×10⁻⁶ cm/s

**Q.** And the “PAMPA permeability Pe” value ([1]; replicate 3)?
**A.** 1.724 ×10⁻⁶ cm/s

**Q.** What about the “ICP-MS Au content per section” value (CTGF [2]; 3-month-old APP/PS1 mouse brain section incubated with DGC, section 1) of the same substance?
**A.** 36.3

**Q.** What about the “ICP-MS Au content per section” value (CTGF [2]; 3-month-old APP/PS1 mouse brain section incubated with DGC, section 2) of the same substance?
**A.** 50.92

**Q.** What about the “ICP-MS Au content per section” value (CTGF [2]; 3-month-old APP/PS1 mouse brain section incubated with DGC, section 3) of the same substance?
**A.** 74.61

**Q.** What about the “ICP-MS Au content per section” value (CTGF [2]; 9-month-old APP/PS1 mouse brain section incubated with DGC, section 1) of the same substance?
**A.** 87.62

**Q.** And the “ICP-MS Au content per section” value (CTGF [2]; 9-month-old APP/PS1 mouse brain section incubated with DGC, section 2)?
**A.** 82.72

**Q.** And the “ICP-MS Au content per section” value (CTGF [2]; 9-month-old APP/PS1 mouse brain section incubated with DGC, section 3)?
**A.** 97.01

**Q.** And the “ICP-MS Au content per section” value (CTGF [2]; WT mouse brain section incubated with DGC, section 1)?
**A.** 11.2

**Q.** What about the “ICP-MS Au content per section” value (CTGF [2]; WT mouse brain section incubated with DGC, section 2) of the same substance?
**A.** 23.11

**Q.** What about the “ICP-MS Au content per section” value (CTGF [2]; WT mouse brain section incubated with DGC, section 3) of the same substance?
**A.** 12.01

**Q.** And the “DAB chromogenic imaging intensity” value (CTGF [3]; 3-month-old APP/PS1 mouse brain section, section 1)?
**A.** 0.198

**Q.** What about the “DAB chromogenic imaging intensity” value (CTGF [3]; 3-month-old APP/PS1 mouse brain section, section 2) of the same substance?
**A.** 0.151

**Q.** And the “DAB chromogenic imaging intensity” value (CTGF [3]; 3-month-old APP/PS1 mouse brain section, section 3)?
**A.** 0.127

**Q.** What about the “DAB chromogenic imaging intensity” value (CTGF [3]; 9-month-old APP/PS1 mouse brain section, section 1) of the same substance?
**A.** 0.282

**Q.** And the “DAB chromogenic imaging intensity” value (CTGF [3]; 9-month-old APP/PS1 mouse brain section, section 2)?
**A.** 0.35

**Q.** What about the “DAB chromogenic imaging intensity” value (CTGF [3]; 9-month-old APP/PS1 mouse brain section, section 3) of the same substance?
**A.** 0.237

**Q.** And the “DAB chromogenic imaging intensity” value (CTGF [3]; WT mouse brain section, Image Pro Plus, section 1)?
**A.** 0.03

**Q.** What about the “DAB chromogenic imaging intensity” value (CTGF [3]; WT mouse brain section, Image Pro Plus, section 2) of the same substance?
**A.** 0.061

**Q.** And the “DAB chromogenic imaging intensity” value (CTGF [3]; WT mouse brain section, Image Pro Plus, section 3)?
**A.** 0.019

Source: publication PMC11169542, “A probe for NIR-II imaging and multimodal analysis of early Alzheimer’s disease by targeting CTGF” (Nature Communications, 2024)
